# Source: patent US20090274696A1, “METHODS FOR TREATING INFLAMMATION” (WYETH, priority 2008, published 2009)
# Experiments:
# [1] = tested on: TSM of fresh tracheal rings; experiment: Force response of fresh tracheas from intranasally challenged mice; format: in vivo, mouse; conditions: intranasal once a day×5 days, 100 nM rFIZZ1 or 0.1 ng/ml LPS; 24 hours after last treatment; PBS 100.00±14.63; N=5
# Protocol: For some experiments, ex vivo TSM tensions of fresh tracheal rings and BAL cell counts were measured at 24 hours after the last treatment of mice receiving an intranasal dose of either PBS, 0.1 ng/m: LPS or 100 nM rFIZZ1 (once a day×5 days).
# Trachea were supported longitudinally by a plexiglas rod with a stainless steel pin into the base of a double-jacketed, glass organ bath filled with 10 mL of Krebs-Henseleit (K-H) solution (37° C.) of the following composition: 118 mM NaCl; 4.7 mM KCl; 1.2 mM KH2PO4; 11.1 mM Dextrose; 1.2 mM MgSO4; 2.8 mM CaCl2; and 25 mM NaHCO3. The solution was maintained at a pH of 7.40-7.45 and continuously gassed with a mixture of 5% CO2 and […] for the duration of each experiment. […] Initial tensions of TSM were set at approximately 0.5 g and maintained for 1 hour. Agonists were given after a steady state of tension had been reached.
# (§1) At the end of each force measurement experiment, tracheas were blotted on a gauze pad and weighted. Results were calculated as milligram of tension per milligram of TSM weight (mg/mg) and expressed as an individual percentage (%) of 10 μM CCh- or 200 μM papaverine-induced tension response in PBS-treated trachea. For the control group, CCh (papaverine)-mediated responses were normalized to the mean value of the maximal responses.
# [2] = tested on: airway epithelium of cultured trachea; experiment: Histological examination of tracheal rings and airway epithelium; format: cell-based, mouse; conditions: cultured overnight with FIZZ1 100 nM or LPS 0.1 ng/mL
# Protocol: (§2) Histological examination of the structure of the airway and the status of the airway epithelial layer was performed in whole/sectional fresh trachea and as well as trachea cultured overnight with and without 100 nM FIZZ1. To understand the role of airway epithelium in regulating contractility of TSM, we measured the contractile response of tracheal rings after the epithelium was mechanically removed. Briefly, airway epithelial cells were removed by gently rubbing the intraluminal surface with polyethylene tubing (Becton Dickinson & Company, MD USA) connected to a Precision Glide needle (30G1/2) followed by perfusion with 1.0 ml air bubbles and then 1.0 ml K-H solution (re). All of the experimental tracheas were stained with H & E solution (CAT hematoxylin, Edgar Degas Eosin Working Solution, Biocare Medical, Concord, Calif.) and photographed under a light microscope at ×4.0 and ×20 magnification. Tracheal morphometric analysis was performed using a computer-based image analysis system consisting of a Nikon Eclipse E800 microscope (Melville, N.Y. USA) with a SPOT RT Slider camera (Diagnostic Instruments, Inc., Sterling Heights, Mich. USA).
# [3] = tested on: MLCK, MLC-20, α-actin, G proteins, c-Raf/ERK1/2/p38 MAPK in trachea; experiment: Western blot of protein expression in treated trachea; format: cell-based, mouse
# Protocol: PBS- and FIZZ1-treated trachea were cultured in DMEM overnight for Western blot analysis. Treated and untreated trachea were harvested and homogenized separately in lysis buffer containing 20 mM […], 2.0 mM EGTA, 5.0 mM EDTA, 30 mM sodium fluoride, 40 mM β-glycerophosphate, 20 mM sodium orthovanadate, 1.0 mM phenylmethylsulfonyl-fluoride, 3.0 mM benzamidine, 5 μM pepstatin A, 10 μM leupeptin and 0.5% Triton X-100 at pH 7.2 (KINEXUS, Canada). Tissue supernatants were centrifuged (15,000×g) for 60 min at 4° C. and protein concentrations in the cleared supernatant of homogenized trachea and BAL were examined by bicinchoninic acid assay (BCA) (Pierce Biotechnology, Rockford, Ill.). Absorbance of total protein from each group was measured spectrophotometrically at an optical density of 562 nm and different concentrations of bovine serum albumin (BSA) were applied as a standard curve. Proteins concentrations (μg/ml) were quantified with the standard curve of BSA using BCA assay. Samples were stored at −70° C. until use.
# Protein expression levels of were examined using Western blot analysis. Briefly, aliquots (100 μg/well) of BAL supernatant and tracheal lysate were loaded onto 4-20% SDS-PAGE gel in an equal volume. Size-fractionated proteins were transferred to nitrocellulose membrane and then blocked with 5% nonfat dried milk in TBS at room temperature for 60 min. The membrane was individually incubated with primary antibodies to either FIZZ1 (Rabbit anti-mouse FIZZ1, Antigenix America Inc., USA), MLCK, MLC-20, α-actin, Giα1,2, Ggα11, β-actin (Sigma, USA), Gα12/13 (Santa Cruz Biotechnology, Inc., USA), c-Raf, phospho-c-Raf, ERK1/2, phospho-ERK1/2, p38 MAPK or phospho-p38 MAPK (Cell Signaling, Inc., USA) at 4° C. overnight, washed three times with TBS and then incubated with peroxidase-conjugated secondary antibodies for another 60 min. The blot was washed 3 times with TBS and a mixture of Western Blotting Detection Reagent I and II (GE Healthcare Life Sciences, Piscataway, N.J.) was poured on the membrane with gentle agitation for 1 min at room temperature. Immunoreactive bands were detected by chemiluminesence. Protein expression levels were evaluated in relative to expression of β-actin in the same tissue. Quantification of Western blots for phosphorylated signaling proteins was performed using ImageJ and relative band intensity was calculated as % of the intensity of the β-actin protein band.
# [4] = tested on: TSM of epithelium-denuded trachea; experiment: CCh-evoked force in trachea with mechanically removed epithelium EP(−); format: cell-based, mouse
# Protocol: as §2, with “Tracheal morphometric analysis was performed using a computer-based image analysis system consisting of a Nikon Eclipse E800 microscope (Melville, N.Y. USA) with a SPOT RT Slider camera (Diagnostic Instruments, Inc., Sterling Heights, Mich. USA).” left out
# as §1, with “For the control group, CCh (papaverine)-mediated responses were normalized to the mean value of the maximal responses.” left out
# [5] = 24 hours after rFIZZ1 treatment vs PBS, n=3
# [6] = FIZZ1-treated vs PBS-treated trachea, relative to β-actin
molecule,measurement,setting,value
"rFIZZ1: recombinant FIZZ1 (Leinco Technologies), mouse FIZZ1 protein, resistin-like molecule-α (protein, listed as Mus musculus, (1)..(101) Murine FIZZ1 polypeptide) MKTTTCSLLICISLLQLMVPVNTDETIEIIVENKVKELLANIPANYPSTVTKTLSCTSVKTMNRWASCPAGMTATGCACGFACGSWEIQSGDTCNCLCLLV","Maximal tensions (%) of TSM, CCh-evoked, fresh trachea",[1],147.78±18.57%
same,"smooth muscle layers, histology",[2],clear and histologically intact
same,"epithelial layer of tracheal rings, histology",[2]; vs PBS,thinner and some of airway epithelium was denuded
same,"protein expression levels for α-actin and G proteins (Giα1,2, Gqα11, Gα12/13)","[3]; 100 nM rFIZZ1- vs PBS-treated trachea, normalized to β-actin",similar
same,"level of phosphorylation of c-Raf, ERK1/2 and p38 MAPK, kinetic profile","[3]; 100 nM rFIZZ1, greatly increasing only between 16 and 32 hours",marked time-dependent increase
same,expression of phospho-ERK1/2,[3]; [5],increased
same,expression of phospho-c-Raf,[3]; [5],increased
same,expression of phospho-p38 MAPK,[3]; [5],increased
same,expression of unphosphorylated c-Raf,"[3]; 24 hours, FIZZ1 vs PBS-cultured trachea",slightly increased
same,expression of MLC-20,[3]; [6],increase
same,expression of MLCK,[3]; [6],increase
same,"EP(−) TSM sensitivity to CCh, LogEC50","[4]; EP(−)/FIZZ1 100 nM, Mean ± SE, N=8",−0.91 ± 0.08 μM
same,"maximal tensions (%), CCh stimulation, EP(−) trachea","[4]; denuded epithelium EP(−) with 100 nM FIZZ1, EP(+) 100±6.22",141.43±6.65%
